# Starred links: 1 amine or outer side, 2 acyl side, 3 side chain; linkers in the order of their positions; H or OH if unused. Non-standard residues stand in square brackets, D forms with d. *: point of attachment. Ala(piperidin-4-yl) = O=C([C@H](CC1CCN([*:3])CC1)N[*:1])[*:2]; (2-amino-2-oxoethyl)carbamoyl = NC(=O)CNC(=O)*; Tetrahydropyran4carbonyl = O=C(C1CCOCC1)*; 4Pal = N[C@@H](Cc1ccncc1)C(=O)O; dHyp = O=C(O)[C@H]1C[C@H](O)CN1; Cha = N[C@@H](CC1CCCCC1)C(=O)O; dIva = CC[C@@](C)(N)C(=O)O; Iva = CC[C@](C)(N)C(=O)O; Nle = CCCC[C@H](N)C(=O)O; Aib = CC(C)(N)C(=O)O; Glycolyl = O=C(CO)*
# What was measured:
# human Y2 receptor [1] = biological target: T1, human Y2 receptor (Homo sapiens, UniProt P49146); test: Receptor Binding Assay (RBA) for Human Y2, [125I]-PYY displacement on hY2R/CHO membrane fraction; conditions: IC50 of test compound/IC50 of PYY(3-36) (PYY(3-36) taken as 1)
# T1 construct: expressed in transfected cells; membrane fraction
# T1 sequence (P49146 1-381): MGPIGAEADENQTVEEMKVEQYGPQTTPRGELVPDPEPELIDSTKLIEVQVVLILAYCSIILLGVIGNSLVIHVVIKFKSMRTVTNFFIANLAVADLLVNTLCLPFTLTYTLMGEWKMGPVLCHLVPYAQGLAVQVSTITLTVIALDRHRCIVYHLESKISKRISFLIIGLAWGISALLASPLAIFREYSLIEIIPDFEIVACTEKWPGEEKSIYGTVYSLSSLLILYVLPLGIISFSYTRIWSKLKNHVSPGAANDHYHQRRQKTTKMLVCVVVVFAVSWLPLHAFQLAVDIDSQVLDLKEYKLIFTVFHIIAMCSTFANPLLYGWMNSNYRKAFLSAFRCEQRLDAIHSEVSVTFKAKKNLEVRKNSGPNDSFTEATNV
# Outline: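 hY2R stably expressed in CHO/dhfr− cells; membrane fraction prepared from cells disrupted in 10 mM NaHCO3, 5 mM EDTA buffer with protease inhibitors. Binding read as displacement of [125I]-PYY.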
# human Y2 receptor [2] = biological target: T1, human Y2 receptor; test: Human Y2 Receptor G Protein Binding Assay (GBA), [35S]GTPγS; format: biochemical; conditions: EC50 of test compound/EC50 of PYY(3-36) (PYY3-36 taken as 1), hY2R/CHO membrane fraction
# Outline: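 Agonism measured as [35S]GTPγS binding, read by GF/C filtration and scintillation counting after 120 min at room temperature, using human Y2 membranes at 1 μg protein/mL in pH 7.4 Tris/MgCl2/NaCl/GDP buffer. Compound serially diluted 100 μM–1 nM; EC50 normalized to PYY(3-36) (ratio = compound/PYY).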
# male C57EL/6J mice = test: 3-Days Continuous Subcutaneous Administration Test-1 (food intake suppressing activity); format: in vivo, mouse; conditions: 0.03 mg/kg/day, subcutaneous Alzet pump, food consumption over 3 days; relative to food intake suppression rate for PYY(3-36) (1 mg/kg/day) taken as 100%
# Outline: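 Male […] mice, 12-13 weeks, received compound at 0.03 mg/kg/day by subcutaneous osmotic pump (50% DMSO vehicle), housed singly with free food access. Food consumed over 3 days measured; suppression expressed relative to PYY(3-36) (1 mg/kg/day) set as 100%.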
Substance,RBA IC50 Ratio (human Y2 receptor [1]),GBA EC50 Ratio (human Y2 receptor [2]),food intake suppression rate (%) (male C57EL/6J mice)
"Ac-[D-Pro24, Nle25, Pya(4)26, Cha27,36, Aib28,31, Lys30]-PYY(23-36) (Ac-S[dP][Nle][4Pal][Cha][Aib]NK[Aib]TRQR[Cha]-NH2; SMILES CCCC[C@H](NC(=O)[C@H]1CCCN1C(=O)[C@H](CO)NC(C)=O)C(=O)N[C@@H](Cc1ccncc1)C(=O)N[C@@H](CC1CCCCC1)C(=O)NC(C)(C)C(=O)N[C@@H](CC(N)=O)C(=O)N[C@@H](CCCCN)C(=O)NC(C)(C)C(=O)N[C@H](C(=O)N[C@@H](CCCNC(=N)N)C(=O)N[C@@H](CCC(N)=O)C(=O)N[C@@H](CCCNC(=N)N)C(=O)N[C@@H](CC1CCCCC1)C(N)=O)[C@@H](C)O) [compound No. 224]",3.0,2.4,30
"(2-amino-2-oxoethyl)carbamoyl-[D-Pro24, Pya(4)26, Cha27,36, Aib28,31, Lys30]-PYY(23-36) ({(2-amino-2-oxoethyl)carbamoyl}-S[dP]R[4Pal][Cha][Aib]NK[Aib]TRQR[Cha]-NH2; SMILES C[C@@H](O)[C@H](NC(=O)C(C)(C)NC(=O)[C@H](CCCCN)NC(=O)[C@H](CC(N)=O)NC(=O)C(C)(C)NC(=O)[C@H](CC1CCCCC1)NC(=O)[C@H](Cc1ccncc1)NC(=O)[C@H](CCCNC(=N)N)NC(=O)[C@H]1CCCN1C(=O)[C@H](CO)NC(=O)NCC(N)=O)C(=O)N[C@@H](CCCNC(=N)N)C(=O)N[C@@H](CCC(N)=O)C(=O)N[C@@H](CCCNC(=N)N)C(=O)N[C@@H](CC1CCCCC1)C(N)=O) [compound No. 292]",1.2,0.74,36
"Glycoloyl-[D-Hyp24, Iva25,28, Pya(4)26, Cha27,36, Leu(Me)28, Lys30, Aib31]-PYY(23-36) (Glycolyl-S[dHyp][Iva][4Pal][Cha][Iva]NK[Aib]TRQR[Cha]-NH2) [compound No. 338]",1.9,2.1,27
"Ac-[D-Hyp24, Iva25, Pya(4)26, Cha27,36, Aib28,31, Lys30]-PYY(23-36) (Ac-S[dHyp][Iva][4Pal][Cha][Aib]NK[Aib]TRQR[Cha]-NH2; SMILES CC[C@](C)(NC(=O)[C@H]1C[C@H](O)CN1C(=O)[C@H](CO)NC(C)=O)C(=O)N[C@@H](Cc1ccncc1)C(=O)N[C@@H](CC1CCCCC1)C(=O)NC(C)(C)C(=O)N[C@@H](CC(N)=O)C(=O)N[C@@H](CCCCN)C(=O)NC(C)(C)C(=O)N[C@H](C(=O)N[C@@H](CCCNC(=N)N)C(=O)N[C@@H](CCC(N)=O)C(=O)N[C@@H](CCCNC(=N)N)C(=O)N[C@@H](CC1CCCCC1)C(N)=O)[C@@H](C)O) [compound No. 297]",1.5,1.4,45
"Ac-[D-Pro24, Ala(4Pip)25, Pya(4)26, Cha27,36, Aib28,31, Lys30]-PYY(23-36) [compound No. 312] (Ac-S[dP][Ala(piperidin-4-yl)][4Pal][Cha][Aib]NK[Aib]TRQR[Cha]-NH2; SMILES CC(=O)N[C@@H](CO)C(=O)N1CCC[C@@H]1C(=O)N[C@@H](CC1CCNCC1)C(=O)N[C@@H](Cc1ccncc1)C(=O)N[C@@H](CC1CCCCC1)C(=O)NC(C)(C)C(=O)N[C@@H](CC(N)=O)C(=O)N[C@@H](CCCCN)C(=O)NC(C)(C)C(=O)N[C@H](C(=O)N[C@@H](CCCNC(=N)N)C(=O)N[C@@H](CCC(N)=O)C(=O)N[C@@H](CCCNC(=N)N)C(=O)N[C@@H](CC1CCCCC1)C(N)=O)[C@@H](C)O)",4.3,5.8,10
"(Tetrahydro-2H-pyran-4-yl)carbonyl-[D-Pro24, Pya(4)26, Cha27,36, Aib28,31, Lys30]-PYY(23-36) (Tetrahydropyran4carbonyl-S[dP]R[4Pal][Cha][Aib]NK[Aib]TRQR[Cha]-NH2; SMILES C[C@@H](O)[C@H](NC(=O)C(C)(C)NC(=O)[C@H](CCCCN)NC(=O)[C@H](CC(N)=O)NC(=O)C(C)(C)NC(=O)[C@H](CC1CCCCC1)NC(=O)[C@H](Cc1ccncc1)NC(=O)[C@H](CCCNC(=N)N)NC(=O)[C@H]1CCCN1C(=O)[C@H](CO)NC(=O)C1CCOCC1)C(=O)N[C@@H](CCCNC(=N)N)C(=O)N[C@@H](CCC(N)=O)C(=O)N[C@@H](CCCNC(=N)N)C(=O)N[C@@H](CC1CCCCC1)C(N)=O) [compound No. 324]",1.1,0.71,42

# Second part, led by results:
RBA IC50 Ratio (human Y2 receptor [1]),GBA EC50 Ratio (human Y2 receptor [2]),Substance,food intake suppression rate (%) (male C57EL/6J mice)
0.36,0.67,"Ac-[D-Pro24, Pya(4)26, Cha27,36, Iva28, Lys30, D-Iva31]-PYY(23-36) (Ac-S[dP]R[4Pal][Cha][Iva]NK[dIva]TRQR[Cha]-NH2; SMILES CC[C@@](C)(NC(=O)[C@H](CCCCN)NC(=O)[C@H](CC(N)=O)NC(=O)[C@](C)(CC)NC(=O)[C@H](CC1CCCCC1)NC(=O)[C@H](Cc1ccncc1)NC(=O)[C@H](CCCNC(=N)N)NC(=O)[C@H]1CCCN1C(=O)[C@H](CO)NC(C)=O)C(=O)N[C@H](C(=O)N[C@@H](CCCNC(=N)N)C(=O)N[C@@H](CCC(N)=O)C(=O)N[C@@H](CCCNC(=N)N)C(=O)N[C@@H](CC1CCCCC1)C(N)=O)[C@@H](C)O) [compound No. 249]",39
6.1,2.8,"Ac-[Glu23, D-Pro24, Iva25, Pya(4)26, Cha27,36, Aib28,31, Lys30]-PYY(23-36) (Ac-E[dP][Iva][4Pal][Cha][Aib]NK[Aib]TRQR[Cha]-NH2; SMILES CC[C@](C)(NC(=O)[C@H]1CCCN1C(=O)[C@H](CCC(=O)O)NC(C)=O)C(=O)N[C@@H](Cc1ccncc1)C(=O)N[C@@H](CC1CCCCC1)C(=O)NC(C)(C)C(=O)N[C@@H](CC(N)=O)C(=O)N[C@@H](CCCCN)C(=O)NC(C)(C)C(=O)N[C@H](C(=O)N[C@@H](CCCNC(=N)N)C(=O)N[C@@H](CCC(N)=O)C(=O)N[C@@H](CCCNC(=N)N)C(=O)N[C@@H](CC1CCCCC1)C(N)=O)[C@@H](C)O) [compound No. 322]",31
0.55,1.6,"Ac-[D-Pro24, Pya(4)26, Cha27,36, Aib28, Lys30, D-Iva31]-PYY(23-36) (Ac-S[dP]R[4Pal][Cha][Aib]NK[dIva]TRQR[Cha]-NH2; SMILES CC[C@@](C)(NC(=O)[C@H](CCCCN)NC(=O)[C@H](CC(N)=O)NC(=O)C(C)(C)NC(=O)[C@H](CC1CCCCC1)NC(=O)[C@H](Cc1ccncc1)NC(=O)[C@H](CCCNC(=N)N)NC(=O)[C@H]1CCCN1C(=O)[C@H](CO)NC(C)=O)C(=O)N[C@H](C(=O)N[C@@H](CCCNC(=N)N)C(=O)N[C@@H](CCC(N)=O)C(=O)N[C@@H](CCCNC(=N)N)C(=O)N[C@@H](CC1CCCCC1)C(N)=O)[C@@H](C)O) [compound No. 232]",34

# Reference: patent US9260500B2, “Peptide and use thereof” (Takeda Pharmaceutical Company Limited, priority 2009, dated 2016)
